Test results from US20130045895A1 (published 2013).
Residue numbers refer to the chain shown, from its start. In names and notes the source's numbering stands.

How the values were obtained:
Human Serum Albumin [1] = target: T1, Human Serum Albumin (human, UniProt P02768 25-609); experiment: see Table 2
T1 construct: also called HSA; antigen

[2] = target: the molecule itself; experiment: analytical ultracentrifugation (sedimentation equilibrium), self-association
Description: In the present examples, three 6-channel equilibrium cells were loaded with 9 protein solutions made by diluting the stock sample 10-, 20-, 30-, 150-, 200-, 300-, 400-, 500, and 600-fold (a range from 540 to 90 μg/ml). Each sample channel was loaded with 120 μl of protein solution and the reference channels were loaded with 125 μl of Dulbecco's phosphate-buffered saline (DPBS) dilution buffer. These cells were then loaded into an AN90-TI rotor and placed into a Beckman Coulter ProteomeLab XL-1 analytical centrifuge equipped with both absorbance and Rayleigh interference (refractive index detection) optical systems. Absorbance scans for the three highest concentrations were recorded at 280 nm; for the lowest concentrations 230 nm was used. The temperature was set at 25° C.

Human Serum Albumin [3] = target: T1, Human Serum Albumin; experiment: BIAcore, purified protein over HSA (559 RU)
Human Serum Albumin [4] = target: T1, Human Serum Albumin; experiment: SPR (Biacore 2000), purified dAb over HSA (559 RU) on CM5 chip
Excerpt: (§1) The data analysis followed routine and established algorithms using the instrument's software (Bia-evaluation 3.2 RC1).

Human Serum Albumin [5] = target: T1, Human Serum Albumin; experiment: SPR (Biacore 2000), purified dAb over HSA (559 RU) on CM5 chip; Table 13 cell, backed by its kon and koff
Excerpt: as §1

Human Serum Albumin [6] = target: T1, Human Serum Albumin; experiment: SPR (Biacore 2000), purified dAb over HSA (559 RU) on CM5 chip; remark: listed apart in the source
Excerpt: as §1

[7] = target: Protein L (Peptostreptococcus magnus); experiment: BIAcore 3000, over Protein L (~500-700 RU)
[8] = target: Protein L (Peptostreptococcus magnus); experiment: BIAcore 3000, over Protein L; statistic over the plates analysed
Human Serum Albumin [9] = target: T1, Human Serum Albumin; experiment: BIAcore, supernatant over immobilised HSA (6036 RU);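 further: expressed culture supernatants of mutant clones diluted 1:1 in HBS-EP buffer and screened for binding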
Description: Screening of expressed supernatants for Protein L and HSA binding: Mutant clones were picked into a 96 well plate format and expressed in 1 mL 2×TY 0.1 mg/ml carbenicillin supplemented with OnEx solutions 1, 2 and 3 according to the manufacturer's instructions (Novagen). Cultures were grown at 30° C. for 3 days at 950 rpm high humidity in an InforsHT shaker. Cells were pelleted by centrifugation (4.5 k in a bench top Sorvall centrifuge for 30 mins) and 75 μL of the supernatant added to an equal volume of HBS-EP buffer (GE Healthcare).

T1 sequence (P02768 25-609 limits assumed): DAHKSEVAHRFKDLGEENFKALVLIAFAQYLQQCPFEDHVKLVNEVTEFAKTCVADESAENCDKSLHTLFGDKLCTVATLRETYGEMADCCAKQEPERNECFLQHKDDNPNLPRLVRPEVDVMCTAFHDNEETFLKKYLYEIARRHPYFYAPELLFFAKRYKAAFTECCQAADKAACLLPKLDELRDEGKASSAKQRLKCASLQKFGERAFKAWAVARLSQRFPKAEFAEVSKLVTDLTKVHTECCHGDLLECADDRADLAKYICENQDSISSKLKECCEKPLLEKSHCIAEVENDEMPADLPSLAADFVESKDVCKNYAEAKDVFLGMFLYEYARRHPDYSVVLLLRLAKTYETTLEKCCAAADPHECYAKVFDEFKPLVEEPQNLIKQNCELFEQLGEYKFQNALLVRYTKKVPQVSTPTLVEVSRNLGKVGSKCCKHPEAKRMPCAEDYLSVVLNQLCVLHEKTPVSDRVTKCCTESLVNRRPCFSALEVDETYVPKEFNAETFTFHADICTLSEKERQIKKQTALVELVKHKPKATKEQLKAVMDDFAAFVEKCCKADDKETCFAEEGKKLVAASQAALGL

B1: DOM7h-8 (other)
VL: DIQMTQSPSSLSASVGDRVTITCRASQSISSYLNWYQQKPGKAPKLLIYRNSPLQSGVPSRFSGSGSGTDFTLTISSLQPEDFATYYCQQTYRVPPTFGQGTKVEIKR
notes: also called DOM7h-8 parent molecule; SD ctrl
Human Serum Albumin [1]
  binding result: binds
[2]
  Kd: 120 nM

B2: DOM7h-8 L46D (other)
VL: B1 VL with L46D
Human Serum Albumin [3]
  binding result: binds

B3: DOM7h-8 Y87L (other)
VL: B1 VL with Y87L
Human Serum Albumin [3]
  binding result: binds

B4: DOM7h-11-15 (other)
VL: DIQMTQSPSSLSASVGDRVTITCRASRPIGTMLSWYQQKPGKAPKLLILAFSRLQSGVPSRFSGSGSGTDFTLTISSLQPEDFATYYCAQAGTHPTTFGQGTKVEIKR
notes: also called DOM7h-11-15 parent
Human Serum Albumin [4]
  koff: 0.0045 s⁻¹
  kon: 12000 M⁻¹ s⁻¹
Human Serum Albumin [5]
  Kd: 384 nM

B5: DOM7h-11-15 A43D (other, name in Kabat numbering)
VL: B4 VL with A43D
notes: also called A43D mutant of DOM7h-11-15
Human Serum Albumin [4]
  Kd: 7000 nM
  koff: 0.0047 s⁻¹
  kon: 664 M⁻¹ s⁻¹

B6: DOM7h-11-15 A43I (other, name in Kabat numbering)
VL: B4 VL with A43I
notes: also called DOM7h-11-15 A43I mutant
Human Serum Albumin [6]
  fold improvement in antigen affinity over the DOM7h-11-15 parent: 1000 fold
Human Serum Albumin [4]
  Kd: 6.4 nM
  koff: 0.0049 s⁻¹
  kon: 770000 M⁻¹ s⁻¹

B7: DOM4-130-54 (protein)
VL: DIQMTQSPSSLSASVGDRVTITCRASQDIYLNLDWYQQKPGKAPKLLINFGSELQSGVPSRFSGSGYGTDFTLTISSLQPEDFATYYCQPSFYFPYTFGQGTKVEIKRA
[7]
  % B5 (proportion of dAb bound at 5 min of dissociation): 4%
[8]
  % B5, 25% Percentile: 3.9%
  % B5, 75% Percentile: 4%
  % B5, Maximum: 4%
  % B5, Mean: 3.9%
  % B5, Median: 4%
  % B5, Minimum: 3.6%

B8: DOM7h-14 (other)
VL: DIQMTQSPSSLSASVGDRVTITCRASQWIGSQLSWYQQKPGKAPKLLIMWRSSLQSGVPSRFSGSGSGTDFTLTISSLQPEDFATYYCAQGAALPRTFGQGTKVEIKR
notes: also called 7h14 wt
Human Serum Albumin [9]
  binding result: binds
[2]
  Kd: 250000 nM

B9: DOM7h-14 Q38H (other)
VL: B8 VL with Q38H
Human Serum Albumin [9]
  binding result: binds

B10: DOM7h-14 Q38V (other)
VL: B8 VL with Q38V
Human Serum Albumin [9]
  binding result: binds

B11: DOM7h-14 Q38K (other)
VL: B8 VL with Q38K
Human Serum Albumin [9]
  binding result: binds

B12: DOM7h-14 Q38Y (other)
VL: B8 VL with Q38Y
Human Serum Albumin [9]
  binding result: binds

B13: DOM7h-14-10 (other)
VL: B8 VL with A92L, A93R, L94H, R96K
notes: also called DOM7h-14-10 parent
Human Serum Albumin [4]
  Kd: 26 nM
  koff: 0.017 s⁻¹
  kon: 670000 M⁻¹ s⁻¹

B14: DOM7h-14 Q38S (other)
VL: B8 VL with Q38S
Human Serum Albumin [9]
  binding result: binds

B15: DOM7h-14 Q38I (other)
VL: B8 VL with Q38I
Human Serum Albumin [9]
  binding result: binds

B16: DOM7h-14 Q38G (other)
VL: B8 VL with Q38G
Human Serum Albumin [9]
  binding result: binds

B17: DOM7h-14 Q38W (other)
VL: B8 VL with Q38W
Human Serum Albumin [9]
  binding result: binds

B18: DOM7h-14 Q38M (other)
VL: B8 VL with Q38M
Human Serum Albumin [9]
  binding result: binds

B19: DOM7h-14 Q38L (other)
VL: B8 VL with Q38L
Human Serum Albumin [9]
  binding result: binds

B20: DOM7h-14 Q38R (other)
VL: B8 VL with Q38R
Human Serum Albumin [9]
  binding result: binds

B21: DOM7h-14 Q38E (other)
VL: B8 VL with Q38E
Human Serum Albumin [9]
  binding result: binds

B22: DOM7h-14 Q38T (other)
VL: B8 VL with Q38T
Human Serum Albumin [9]
  binding result: binds

B23: DOM7h-14-10 A43I (other, name in Kabat numbering)
VL: B8 VL with A43I, A92L, A93R, L94H, R96K
notes: also called A43I mutant of DOM7h-14-10
Human Serum Albumin [6]
  fold improvement in antigen affinity over DOM7h-14-10: 2 fold
Human Serum Albumin [4]
  Kd: 13.1 nM
  koff: 0.012 s⁻¹
  kon: 890000 M⁻¹ s⁻¹

B24: DOM7h-14-10 A43D (other, name in Kabat numbering)
VL: B8 VL with A43D, A92L, A93R, L94H, R96K
notes: also called A43D mutant of DOM7h-14-10
Human Serum Albumin [6]
  fold improvement in antigen affinity over DOM7h-14-10: 2 fold
Human Serum Albumin [4]
  Kd: 11.7 nM
  koff: 0.012 s⁻¹
  kon: 990000 M⁻¹ s⁻¹

B25: DOM7h-14 Q38P (other)
VL: B8 VL with Q38P
Human Serum Albumin [9]
  binding result: binds

B26: DOM7h-14 Q38N (other)
VL: B8 VL with Q38N
Human Serum Albumin [9]
  binding result: binds

B27: DOM7h-14 Q38F (other)
VL: B8 VL with Q38F
Human Serum Albumin [9]
  binding result: binds
